Test results from article PMC4067574 (Protein expression and purification, 2010).
“And” between values parts separate entries of the source, which are not always exact repeats. Identical values can stand only once.

Target: C3b (UniProt P01024 23-667; P01024 749-1663)
Experiment: SPR

Chain of C3b (P01024 23-667, chain 1 of 2): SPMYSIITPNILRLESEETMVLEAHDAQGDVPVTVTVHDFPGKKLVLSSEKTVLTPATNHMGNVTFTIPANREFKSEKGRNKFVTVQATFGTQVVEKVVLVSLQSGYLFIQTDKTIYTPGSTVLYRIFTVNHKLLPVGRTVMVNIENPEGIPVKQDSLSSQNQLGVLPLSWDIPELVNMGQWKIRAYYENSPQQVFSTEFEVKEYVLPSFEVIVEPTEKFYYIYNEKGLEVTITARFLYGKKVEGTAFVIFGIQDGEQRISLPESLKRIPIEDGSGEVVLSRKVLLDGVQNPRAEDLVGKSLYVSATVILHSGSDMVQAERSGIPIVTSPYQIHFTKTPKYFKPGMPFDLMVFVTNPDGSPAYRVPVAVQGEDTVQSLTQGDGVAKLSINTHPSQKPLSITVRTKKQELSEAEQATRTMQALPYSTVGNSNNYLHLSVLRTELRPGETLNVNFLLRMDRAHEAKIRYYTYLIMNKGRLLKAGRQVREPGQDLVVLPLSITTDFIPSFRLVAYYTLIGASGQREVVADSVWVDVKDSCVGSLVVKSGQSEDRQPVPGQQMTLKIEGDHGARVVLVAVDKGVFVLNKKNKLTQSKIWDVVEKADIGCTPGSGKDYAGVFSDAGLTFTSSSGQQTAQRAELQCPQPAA
Chain of C3b (P01024 749-1663, chain 2 of 2): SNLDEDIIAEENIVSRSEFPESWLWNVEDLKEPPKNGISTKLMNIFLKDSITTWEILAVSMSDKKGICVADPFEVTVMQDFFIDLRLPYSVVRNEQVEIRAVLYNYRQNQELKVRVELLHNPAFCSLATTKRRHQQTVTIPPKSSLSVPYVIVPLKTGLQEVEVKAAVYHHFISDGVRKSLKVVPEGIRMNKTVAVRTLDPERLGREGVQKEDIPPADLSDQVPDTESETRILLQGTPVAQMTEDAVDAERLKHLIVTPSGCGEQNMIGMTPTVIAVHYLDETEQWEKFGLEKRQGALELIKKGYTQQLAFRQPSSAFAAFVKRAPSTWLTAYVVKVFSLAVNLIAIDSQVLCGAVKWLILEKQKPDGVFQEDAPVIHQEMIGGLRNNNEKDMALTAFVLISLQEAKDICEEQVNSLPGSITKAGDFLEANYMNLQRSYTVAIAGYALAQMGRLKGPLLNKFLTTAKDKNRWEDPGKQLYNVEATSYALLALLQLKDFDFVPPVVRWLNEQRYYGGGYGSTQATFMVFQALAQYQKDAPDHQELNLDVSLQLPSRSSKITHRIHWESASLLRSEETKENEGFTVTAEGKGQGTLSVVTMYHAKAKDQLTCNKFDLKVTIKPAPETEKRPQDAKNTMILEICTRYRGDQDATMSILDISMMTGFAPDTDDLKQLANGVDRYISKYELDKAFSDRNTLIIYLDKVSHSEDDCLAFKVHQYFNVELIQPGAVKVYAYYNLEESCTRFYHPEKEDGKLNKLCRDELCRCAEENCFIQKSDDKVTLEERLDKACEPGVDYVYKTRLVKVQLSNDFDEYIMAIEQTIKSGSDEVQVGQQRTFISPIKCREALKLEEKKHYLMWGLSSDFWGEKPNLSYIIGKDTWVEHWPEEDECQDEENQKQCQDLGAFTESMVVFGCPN

B1: recombinant human complement factor H, V62,Y402 variant (rFH), Endo Hf-deglycosylated (natural protein, UniProt P08603 19-1231, looked up)
chain: EDCNELPPRRNTEILTGSWSDQTYPEGTQAIYKCRPGYRSLGNVIMVCRKGEWVALNPLRKCQKRPCGHPGDTPFGTFTLTGGNVFEYGVKAVYTCNEGYQLLGEINYRECDTDGWTNDIPICEVVKCLPVTAPENGKIVSSAMEPDREYHFGQAVRFVCNSGYKIEGDEEMHCSDDGFWSKEKPKCVEISCKSPDVINGSPISQKIIYKENERFQYKCNMGYEYSERGDAVCTESGWRPLPSCEEKSCDNPYIPNGDYSPLRIKHRTGDEITYQCRNGFYPATRGNTAKCTSTGWIPAPRCTLKPCDYPDIKHGGLYHENMRRPYFPVAVGKYYSYYCDEHFETPSGSYWDHIHCTQDGWSPAVPCLRKCYFPYLENGYNQNYGRKFVQGKSIDVACHPGYALPKAQTTVTCMENGWSPTPRCIRVKTCSKSSIDIENGFISESQYTYALKEKAKYQCKLGYVTADGETSGSITCGKDGWSAQPTCIKSCDIPVFMNARTKNDFTWFKLNDTLDYECHDGYESNTGSTTGSIVCGYNGWSDLPICYERECELPKIDVHLVPDRKKDQYKVGEVLKFSCKPGFTIVGPNSVQCYHFGLSPDLPICKEQVQSCGPPPELLNGNVKEKTKEEYGHSEVVEYYCNPRFLMKGPNKIQCVDGEWTTLPVCIVEESTCGDIPELEHGWAQLSSPPYYYGDSVEFNCSESFTMIGHRSITCIHGVWTQLPQCVAIDKLKKCKSSNLIILEEHLKNKKEFDHNSNIRYRCRGKEGWIHTVCINGRWDPEVNCSMAQIQLCPPPPQIPNSHNMTTTLNYRDGEKVSVLCQENYLIQEGEEITCKDGRWQSIPLCVEKIPCSQPPQIEHGTINSSRSSQESYAHGTKLSYTCEGGFRISEENETTCYMGKWSSPPQCEGLPCKSPPEISHGVVAHMSDSYQYGEEVTYKCFEGFGIDGPAIAKCLGEKWSHPPSCIKTDCLSLPSFENAIPMGEKKDVYKAGEQVTYTCATYYKMDGASNVTCINSRWTGRPTCRDTSCVNPPTVQNAYIVSRQMSKYPSGERVRYQCRSPYEMFGDEEVMCLNGNWTEPPQCKDSTGKCGPPPPIDNGDITSFPLSVYAPASSVEYQCQNLYQLEGNKRITCRNGQWSEPPKCLHPCVISREIMENYNIALRWTAKQKLYSRTGESVEFVCKRGYRLSSRSHTLRTTCWDGKLEYPTCAKR
modifications: eight residual N-acetylglucosamine moieties after endoglycosidase H (Endo Hf) digestion of the N-linked glycans
Kd: 1.5 µM and 1.4 µM

B2: plasma-purified human complement factor H (reference FH) (natural protein, UniProt P08603 19-1231, looked up)
chain: B1 chain
modifications: eight N-glycans (native protein)
Kd: 2.9 µM
